The results in this text go back to patent publication US20260185069.

Data set [1] concerns T1, Dn29 large serine recombinase (Desulfotomaculum nigrificans).
T1 sequence: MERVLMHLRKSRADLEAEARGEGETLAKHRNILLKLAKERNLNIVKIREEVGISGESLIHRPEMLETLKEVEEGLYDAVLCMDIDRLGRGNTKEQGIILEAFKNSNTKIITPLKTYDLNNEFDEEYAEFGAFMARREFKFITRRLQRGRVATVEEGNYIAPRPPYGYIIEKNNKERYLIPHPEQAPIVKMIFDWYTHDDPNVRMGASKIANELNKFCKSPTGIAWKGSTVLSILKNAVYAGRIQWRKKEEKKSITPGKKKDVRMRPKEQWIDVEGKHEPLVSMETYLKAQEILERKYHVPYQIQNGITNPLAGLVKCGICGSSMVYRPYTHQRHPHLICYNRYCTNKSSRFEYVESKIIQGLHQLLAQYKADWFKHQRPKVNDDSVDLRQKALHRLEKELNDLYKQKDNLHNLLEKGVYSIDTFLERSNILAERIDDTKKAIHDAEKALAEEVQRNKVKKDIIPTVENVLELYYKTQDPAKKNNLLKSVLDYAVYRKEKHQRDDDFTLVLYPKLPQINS
Put plainly: cell_activity. The conditions noted are these: HEK293FT, unfused LSR, UMI integration-site mapping.

The target of data set [2] is Dn29-XTEN32-(GGSS)2-dCas9 fusion (synthetic construct) (UniProt Q99ZW2). The experiment in a line: cell_activity. The conditions noted are these: HEK293FT, attD donor plasmid, single gRNA near attH1, ddPCR; specificity about 78% of UMIs with guide 3.

Turning to “Dn29 attH1 pseudosite (chr10:21,130,404, NEBL intron)”, the activity (% of integrations at site) in data set [1] was 30. This substance also returned an activity (% integration) in data set [2] below 30.
